Source: patent US20220235144A1 (QILU PUGET SOUND BIOTHERAPEUTICS, published 2022)
Changes are numbered by the printed parent chain.

B1: Ab4_G4 (antibody, human IgG4 S228P, kappa)
heavy: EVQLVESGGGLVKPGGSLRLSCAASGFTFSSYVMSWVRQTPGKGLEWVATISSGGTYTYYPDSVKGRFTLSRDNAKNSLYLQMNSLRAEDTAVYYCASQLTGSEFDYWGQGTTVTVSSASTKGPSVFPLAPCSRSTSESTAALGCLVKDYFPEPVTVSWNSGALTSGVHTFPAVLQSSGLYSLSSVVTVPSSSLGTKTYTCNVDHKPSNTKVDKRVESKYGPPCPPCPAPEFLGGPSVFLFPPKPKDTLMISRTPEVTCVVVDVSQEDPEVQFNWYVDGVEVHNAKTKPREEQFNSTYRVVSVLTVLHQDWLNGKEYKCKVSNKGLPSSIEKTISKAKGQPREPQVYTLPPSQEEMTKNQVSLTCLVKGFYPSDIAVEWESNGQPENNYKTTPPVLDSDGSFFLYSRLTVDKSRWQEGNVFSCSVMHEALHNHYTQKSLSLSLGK
light: DIVITQSPASLAVSLGERATISCRASESVDSYGNSFMHWYQQKPGQPPKLLIYRASNLESGVPDRFSGSGSRTDFTLTINPLQAEDVATYYCHQSADLPWTFGGGTKVEIKRTVAAPSVFIFPPSDEQLKSGTASVVCLLNNFYPREAKVQWKVDNALQSGNSQESVTEQDSKDSTYSLSSTLTLSKADYEKHKVYACEVTHQGLSSPVTKSFNRGEC
notes: human IgG4 format
B2: Ab12_G4 (antibody, human IgG4 S228P, kappa)
heavy: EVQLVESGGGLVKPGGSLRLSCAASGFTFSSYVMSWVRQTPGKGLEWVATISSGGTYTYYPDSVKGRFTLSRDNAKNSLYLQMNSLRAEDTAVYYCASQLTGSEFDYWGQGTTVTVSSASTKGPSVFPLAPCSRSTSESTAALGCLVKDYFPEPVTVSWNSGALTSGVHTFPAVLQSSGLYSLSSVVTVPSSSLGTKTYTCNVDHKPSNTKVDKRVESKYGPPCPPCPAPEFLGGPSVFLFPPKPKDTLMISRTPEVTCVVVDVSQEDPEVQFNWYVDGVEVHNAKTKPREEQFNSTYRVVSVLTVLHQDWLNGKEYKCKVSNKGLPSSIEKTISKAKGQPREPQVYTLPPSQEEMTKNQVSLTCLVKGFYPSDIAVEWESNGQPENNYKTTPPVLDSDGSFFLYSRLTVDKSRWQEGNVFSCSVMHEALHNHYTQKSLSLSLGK
light: B1 light with I4L
notes: human IgG4 format
B3: Ab8_G4 (antibody, human IgG4 S228P, kappa, V domains shown)
VH: EVQLVESGGGLVKPGGSLRLSCAASGFTFSSYVMSWVRQTPGKGLEWVATISSGGTYTYYPESVKGRFTLSRDNAKNSLYLQMNSLRAEDTAVYYCASQLTGSEFDYWGQGTTVTVSS
VL: DIVMTQSPASLAVSLGERATISCRASESVDSYGNSFMHWYQQKPGQPPKLLIYRASNLESGVPDRFSGSGSRTDFTLTINPLQAEDVATYYCHQSADLPWTFGGGTKVEIKR
notes: human IgG4 format
B4: Ab2_G4 (antibody, human IgG4 S228P, kappa, V domains shown)
VH: B3 VH with E62D, Q99S, L100V, T101D, E104A
VL: DIVITQSPASLAVSLGERATISCRASESVDSYGMSFMHWYQQKPGQPPKLLIYRASNLESGVPDRFSGSGSRTDFTLTINPLQAEDVATYYCHQSSENLPWTFGGGTKVEIKR
notes: human IgG4 format
B5: Ab1_G2 (antibody, human IgG2, V domains shown)
VH: B3 VH with E62S, Q99S, E104S
VL: B4 VL with I4L, S31L, M34T, E97D, N98E
B6: Ab11_G2 (antibody, human IgG2, V domains shown)
VH: B3 VH with E62D
VL: B3 VL with M4I, A96G
notes: same antibody as Ab11_G4 except human IgG2 CH1, hinge, CH2 and CH3
B7: Ab9_G2 (antibody, human IgG2, V domains shown)
VH: B3 VH with E62N, A97V, Q99S, L100M, E104S
VL: B4 VL with M34N, N98Q
notes: same antibody as Ab9_G4 except human IgG2 CH1, hinge, CH2 and CH3
B8: Ab9_G4 (antibody, human IgG4 S228P, kappa, V domains shown)
VH: B3 VH with E62N, A97V, Q99S, L100M, E104S
VL: B4 VL with M34N, N98Q
notes: human IgG4 format
B9: Ab24_G4 (antibody, human IgG4 S228P, kappa)
heavy: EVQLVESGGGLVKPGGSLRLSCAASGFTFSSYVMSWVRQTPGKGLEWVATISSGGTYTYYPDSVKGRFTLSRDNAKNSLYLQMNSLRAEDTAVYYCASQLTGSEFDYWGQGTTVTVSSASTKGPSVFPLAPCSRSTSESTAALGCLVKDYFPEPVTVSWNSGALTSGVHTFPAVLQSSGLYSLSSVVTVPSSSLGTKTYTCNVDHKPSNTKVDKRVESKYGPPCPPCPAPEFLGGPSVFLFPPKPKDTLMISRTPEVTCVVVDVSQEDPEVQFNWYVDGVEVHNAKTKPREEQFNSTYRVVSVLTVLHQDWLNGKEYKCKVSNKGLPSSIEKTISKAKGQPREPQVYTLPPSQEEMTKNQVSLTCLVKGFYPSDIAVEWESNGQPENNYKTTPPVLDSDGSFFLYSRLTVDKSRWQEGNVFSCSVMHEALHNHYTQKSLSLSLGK
light: DIVLTQSPASLAVSLGERATISCRASESVDLYGTSFMHWYQQKPGQPPKLLIYRASNLESGVPDRFSGSGSRTDFTLTINPLQAEDVATYYCHQSSDELPWTFGGGTKVEIKRTVAAPSVFIFPPSDEQLKSGTASVVCLLNNFYPREAKVQWKVDNALQSGNSQESVTEQDSKDSTYSLSSTLTLSKADYEKHKVYACEVTHQGLSSPVTKSFNRGEC
notes: human IgG4 format

What follows are binders tested against T1, hSIRPαV1D1 with histidine tag (human, UniProt P78324 31-147) (assay: SPR (Biacore 3000), IgG captured on anti-human IgG, His-tagged D1 analyte).
T1 construct: analyte of the Biacore experiments; also called first immunoglobulin-like domain of human SIRPα variant V1; not shown: histidine tag
T1 sequence (P78324 31-147 limits assumed): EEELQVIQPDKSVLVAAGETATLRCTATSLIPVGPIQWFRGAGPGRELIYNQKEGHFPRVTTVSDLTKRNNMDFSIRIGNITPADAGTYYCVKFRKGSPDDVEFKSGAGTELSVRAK
Text: (§1) Goat anti-human IgG capture antibody (Jackson Laboratories; 109-005-098) was immobilized on the four flow cells in each sensor chip using standard amine coupling chemistry. About 8000 resonance units (RU) of this antibody was immobilized on each flow cell. Flow cells 2, 3, and 4 were used to analyze captured anti-SIRPα antibodies (about 250 to 300 RU were captured on each of flow cells 2, 3, and 4), while flow cell 1 was used as the reference flow cell. The analytes tested were hSIRPαV1D1, hSIRPαV2D1, cynomolgus monkey SIRPαV1D1 (cSIRPαV1D1), cSIRPαV2D1, hSIRPβ1D1, and hSIRPγD1, each of which also included a histidine tag. The sequences of cSIRPαV1D1 and cSIRPαV2D2 are provided in SEQ ID NOs: 143 and 142, respectively. To avoid confusion, the differences between the amino acid sequences of cSIRPαV1D1 and cSIRPαV2D1 are not the same as the differences between the amino acid sequences of hSIRPαV1D1 and hSIRPαV2D1. […] The amino acid sequence of hSIRPβ1D1 can be found in amino acids 30-148 of SEQ ID NO: 144, and the amino acid sequence of hSIRPγD1 can be found in amino acids 31-149 of SEQ ID NO: 141.
(§2) Generally, concentrations from about 0.1×KD to about 10×KD are appropriate for kinetic analysis. From one to six different concentrations were evaluated for each antibody:analyte interaction, depending on the comparisons to be made in an individual experiment. All analyte dilutions were prepared in HPS-EP buffer. Multiple blank (running buffer) injections were run and used to assess and subtract system artifacts. The association phase and dissociation phase for all analyte concentrations were monitored for 180 seconds and 300 seconds, respectively, at a flow rate of 50 μL/min. Between antibody samples, the surfaces of the flow cells were regenerated with 10 mM glycine, pH 1.5 using two injections, each lasting 12 seconds at a flow rate of 50 μL/min.
(§3) The data were analyzed using BIAevaluation software (Biacore, General Electric (GE)). The data was fit using the 1:1 Langmuir model.

With B1 as the binder, how does the Kd read?
Its Kd is 307 nM.

How did the Kd turn out when B2 was run?
The Kd was 348 nM.

For B3, which Kd is on record?
The Kd was 411 nM.

How did the Kd turn out when B4 was run?
Its Kd is 226 nM.

With B5 as the binder, how does the Kd read?
Its Kd is 50.7 nM.

How did the Kd turn out when B6 was run?
The Kd was 125 nM.

For B7, which Kd is on record?
The Kd was 75 nM.

For B8, which Kd is on record?
Its Kd is 102 nM.

Which Kd does the source give for B9 here?
Its Kd is 21.4 nM.

Each binder was assayed against T2, hSIRPαV2D1 with histidine tag (human) in the same assay as above.
T2 construct: analyte of the Biacore experiments; also called first immunoglobulin-like domain of human SIRPα variant V2; not shown: histidine tag
T2 sequence (chain, as listed by the source limits assumed): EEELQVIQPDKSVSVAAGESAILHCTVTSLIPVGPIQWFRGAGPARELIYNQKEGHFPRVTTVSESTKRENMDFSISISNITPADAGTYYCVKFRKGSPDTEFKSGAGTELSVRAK
Text: as §1, §2, §3

Which Kd does the source give for B1 here?
The Kd was 4.04 nM.

B2 was tested. Which Kd did it give?
Its Kd is 4.6 nM.

With B3 as the binder, how does the Kd read?
The Kd was 6.02 nM.

With B4 as the binder, how does the Kd read?
Its Kd is 3.06 nM.

With B5 as the binder, how does the Kd read?
The Kd was 2.51 nM.

How did the Kd turn out when B6 was run?
The Kd was 1.92 nM.

With B7 as the binder, how does the Kd read?
The Kd was 2.11 nM.

For B8, which Kd is on record?
The Kd was 2.97 nM.

B9 was tested. Which Kd did it give?
The Kd was 0.956 nM.

Target: T3, cSIRPαV1D1 with histidine tag (cynomolgus monkey (Macaca fascicularis), UniProt Q5TFQ8 30-146 (human entry))
T3 construct: also called cynomolgus monkey SIRPαV1D1; not shown: histidine tag
T3 chain: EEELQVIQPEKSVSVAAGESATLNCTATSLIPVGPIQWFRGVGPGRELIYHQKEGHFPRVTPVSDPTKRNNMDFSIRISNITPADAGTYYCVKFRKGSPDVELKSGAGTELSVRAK
Assay: as above
Text: as §1, §2, §3

With B1 as the binder, how does the Kd read?
The Kd was 165 nM.

For B2, which Kd is on record?
Its Kd is 197 nM.

Which Kd does the source give for B3 here?
Its Kd is 256 nM.

For B4, which Kd is on record?
The Kd was 145 nM.

For B5, which Kd is on record?
Its Kd is 26.9 nM.

B6 was tested. Which Kd did it give?
Its Kd is 98 nM.

Which Kd does the source give for B7 here?
Its Kd is 155 nM.

B8 was tested. Which Kd did it give?
The Kd was 183 nM.

How did the Kd turn out when B9 was run?
The Kd was 8.59 nM.

Target: T4, cSIRPαV2D1 with histidine tag (cynomolgus monkey (Macaca fascicularis), UniProt Q5TFQ8 30-146 (human entry))
T4 construct: also called cynomolgus monkey SIRPαV2D1; not shown: histidine tag
T4 chain: T3 chain with E19D, A27V, T28S, V42A, H51N, Q52L
Assay: as above
Text: as §1, §2, §3

How did the Kd turn out when B1 was run?
The Kd was about 714 nM.

For B2, which Kd is on record?
Its Kd is about 727 nM.

With B3 as the binder, how does the Kd read?
The Kd was about 1050 nM.

For B4, which Kd is on record?
The Kd was about 709 nM.

For B5, which Kd is on record?
The Kd was 287 nM.

B6 was tested. Which Kd did it give?
Its Kd is about 475 nM.

Which Kd does the source give for B7 here?
Its Kd is about 426 nM.

With B8 as the binder, how does the Kd read?
The Kd was about 432 nM.

What follows are binders tested against T5, hSIRPβ1D1 with histidine tag (human, UniProt O00241 30-148) in the same assay as above.
T5 construct: analyte of the Biacore experiments; also called hSIRPβD1; not shown: histidine tag
T5 sequence (O00241 30-148): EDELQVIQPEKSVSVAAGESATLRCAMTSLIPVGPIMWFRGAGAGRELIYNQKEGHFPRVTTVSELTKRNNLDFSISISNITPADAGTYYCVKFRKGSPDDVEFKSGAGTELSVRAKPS
Text: as §1, §2, §3

B1 was tested. Which Kd did it give?
Its Kd is 24.3 nM.

For B2, which Kd is on record?
Its Kd is 29 nM.

With B3 as the binder, how does the Kd read?
The Kd was 44.3 nM.

Which Kd does the source give for B4 here?
Its Kd is 53.6 nM.

B5 was tested. Which Kd did it give?
The Kd was 1.39 nM.

B6 was tested. Which Kd did it give?
Its Kd is 8.58 nM.

How did the Kd turn out when B7 was run?
Its Kd is 6.63 nM.

B8 was tested. Which Kd did it give?
The Kd was 6.43 nM.

With B9 as the binder, how does the Kd read?
Its Kd is 0.217 nM.

The binders below were run against T6, hSIRPγD1 with histidine tag (human, UniProt Q9P1W8 31-149) in the same assay as above.
T6 construct: also called first immunoglobulin-like domain of human SIRP Gamma; not shown: histidine tag
T6 sequence (Q9P1W8 31-149): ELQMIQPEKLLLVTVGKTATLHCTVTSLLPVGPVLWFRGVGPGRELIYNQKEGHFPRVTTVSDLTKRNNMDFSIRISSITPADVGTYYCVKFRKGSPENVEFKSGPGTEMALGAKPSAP
Text: as §1, §2, §3

B1 was tested. Which Kd did it give?
The Kd was about 4560 nM.

For B2, which Kd is on record?
The Kd was about 5020 nM.

For B3, which Kd is on record?
Its Kd is about 6200 nM.

How did the Kd turn out when B4 was run?
Its Kd is about 944 nM.

Which Kd does the source give for B5 here?
Its Kd is 168 nM.

How did the Kd turn out when B6 was run?
Its Kd is about 3060 nM.

With B7 as the binder, how does the Kd read?
The Kd was about 457 nM.

How did the Kd turn out when B8 was run?
The Kd was about 616 nM.

With B9 as the binder, how does the Kd read?
Its Kd is 140 nM.

These binders were tested against T7, hSIRPαV2 expressed on the cell surface (human, UniProt P78324 31-504) (assay: flow cytometry on primary human monocytes (FSC/SSC gate) in PBMCs expressing only SIRPαV2, antibody detected with APC-(Fab)2 goat anti-human IgG Fc (MFI at about 670 nm)).
T7 construct: whole, on cells; also called human SIRPα variant V2
T7 sequence (P78324 other isoform, or with tags, fused parts or gaps limits assumed): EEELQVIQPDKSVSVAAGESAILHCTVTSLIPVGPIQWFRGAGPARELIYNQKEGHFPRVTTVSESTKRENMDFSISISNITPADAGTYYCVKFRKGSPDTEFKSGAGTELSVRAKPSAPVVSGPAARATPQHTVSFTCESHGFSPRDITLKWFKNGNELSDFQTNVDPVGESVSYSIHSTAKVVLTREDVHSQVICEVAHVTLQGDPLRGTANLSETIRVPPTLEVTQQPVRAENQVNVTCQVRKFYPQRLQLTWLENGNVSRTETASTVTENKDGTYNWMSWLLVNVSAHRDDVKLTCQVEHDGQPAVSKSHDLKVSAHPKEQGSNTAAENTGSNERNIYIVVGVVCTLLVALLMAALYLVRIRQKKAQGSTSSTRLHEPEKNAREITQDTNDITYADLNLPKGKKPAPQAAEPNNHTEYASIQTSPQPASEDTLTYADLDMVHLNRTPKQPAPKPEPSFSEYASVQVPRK
Description: FIG. 6: Binding of anti-SIRPα antibodies to T cells and monocytes. Methods are described in Example 4. […] The x axes show the antibody concentration in μg/ml. The y axes show mean fluorescence intensity (MFI) at about 670 nm (due to binding of allophycocyanin (APC)-conjugated (Fab)₂ goat anti-human IgG Fc-specific secondary antibody).
Some of the anti-SIRPα antibodies were tested in vitro for binding to primary T cells and monocytes in peripheral blood mononuclear cells (PBMCs). Briefly, PBMCs that expressed only SIRPα V2 were seeded in 96-well microtiter plates. Serial dilutions of anti-SIRPα antibodies were incubated with the cells on ice for 30 minutes. […] The cells were then subjected to FACs. T cells were gated based on their anti-CD4 or anti-CD8 binding (detected by FITC fluorescence), since T cells commonly express either CD4 or CD8. Monocytes were gated based on their forward scatter/side scatter (FSC/SSC) profile, since a characteristic FSC/SSC profile can identify monocytes. See, e.g., Marimuthu et al., Characterization of human monocytes subsets by whole blood flow cytometry analysis, J. Vis. Exp. (140), e57941, doi:10.3791/57941 (2018). The binding of anti-SIRPα antibodies to each population was reported as a mean fluorescence intensity (MFI) of the APC channel (670 nm).

How did the “EC50 (read off the curve)” value turn out when B9 was run?
The value was about 0.03 µg/mL.

The binders below were run against T7, hSIRPαV2 expressed on the cell surface (assay: FACS competition on EXPI293 cells stably expressing hSIRPαV2: biotinylated hCD47:Fc (2.5 µg/ml) mixed with serial dilutions of the antibody, bound hCD47:Fc detected with streptavidin-PE (MFI); blocked ligand: hCD47:Fc).
Description: The x axes show the antibody concentration in μg/ml. The y axes show mean fluorescence intensity (MFI) at about 572 nm (due to binding of biotinylated CD47:Fc, detected by a streptavidin-phycoerythrin conjugate).
Some of the anti-SIRPα antibodies described above were tested in vitro for their ability to inhibit binding of CD47 to hSIRPαV1 or hSIRPαV2 expressed on the surface of EXPI293™ cells stably transfected with DNA encoding these proteins. Briefly, stable transfectants expressing hSIRPαV1 or hSIRPαV2 were seeded into 96-well microtiter plates. […] After 30 minutes incubation, cells were washed, streptavidin-phycoerythrin (streptavidin-PE) was added, and cells were subjected to FACS to detect bound hCD47:Fc. Results were reported as a mean fluorescence intensity (MFI) using FlowJo software (FLOWJO, L.L.C., Ashland, Oreg., USA). FIGS. 4 and 5 show the MFI detected on the y axes of both panels and the antibody concentration on the x axes of both panels.

Which “IC50 (read off the curve)” value does the source give for B8 here?
The value was about 0.4 µg/mL.
